No end group written: not given here. rhodamine = not defined here
Legend:
[1] = test system: Ca^2+/Calmodulin-dependent Protein Kinase (CaMK-II); assay: Timecourse of phosphorylation by CaMK-II (32P-ATP); type: biochemical; conditions: 10% crude CaMK-II, 0.5 mM Ca^2+, 0.037 mg/ml calmodulin, 0.2 mM ATP
Description: A set of timecourses of phosphorylation is performed on Zip4S using PKA and Ca^2+/Calmodulin-dependent Protein Kinase (CaMK-II), together with positive and negative controls for CaMK-II (these controls confirm that the preparation of CaMK-II posesses the expected characteristics of that enzyme). PKA phosphorylation is performed in 50 mM histidine/HCl (pH 7.0), 5 mM MgSO4, 5 mM NaF, 0.05 mM EGTA, 120 mM kcb with 0.2 mM ATP (39.72 cpm/pmol ^32P-ATP) and 0.25 μM PKA. CaMK-II phosphorylation is performed in 50 mM histidine/HCl (pH 7.0), 5 mM MgSO4, 5 mM NaF, 120 mM kcb, 0.5 mM Ca^2+, 0.037 mg/ml calmodulin with 0.2 mM ATP (39.72 cpm/pmol ^32P-ATP) and 10% crude CaMK-II. In the Ca^2+-free experiment, Ca^2+ is replaced by 0.05 mM EGTA. […] Such specificity of a modification site in a polypeptide according to the invention is a clear advantage for use of the invention in an intracellular assay, or for measuring the activity of a particular polypeptide modifying agent in a complex mixture such as a cell lysate.

PKA = PKA (Homo sapiens, UniProt P17612); assay: Timecourse of phosphorylation by PKA (32P-ATP); type: biochemical; conditions: 0.2 mM ATP
Description: A timecourse of phosphorylation of these peptides by PKA is run in 50 mM histidine/HCl (pH 7.0), 5 mM MgSO4, 5 mM NaF, 0.05 mM EGTA, 120 mM kcb with 0.2 mM ATP (30.9 cpm/pmol ^32P-ATP) and 0.5 μM PKA. […] Zip4T is also phosphorylated, at a slower rate, with full phosphorylation achieved in 30 minutes in this assay. In this assay, the difference in cpm recovered between the Zip4 peptides and PL919Y is due to the difference in recovery of these peptides on P81 paper. The plateau indicates full phosphorylation.
A set of timecourses of phosphorylation is performed on Zip4S using PKA and Ca^2+/Calmodulin-dependent Protein Kinase (CaMK-II), together with positive and negative controls for CaMK-II (these controls confirm that the preparation of CaMK-II posesses the expected characteristics of that enzyme). PKA phosphorylation is performed in 50 mM histidine/HCl (pH 7.0), 5 mM MgSO4, 5 mM NaF, 0.05 mM EGTA, 120 mM kcb with 0.2 mM ATP (39.72 cpm/pmol ^32P-ATP) and 0.25 μM PKA. CaMK-II phosphorylation is performed in 50 mM histidine/HCl (pH 7.0), 5 mM MgSO4, 5 mM NaF, 120 mM kcb, 0.5 mM Ca^2+, 0.037 mg/ml calmodulin with 0.2 mM ATP (39.72 cpm/pmol ^32P-ATP) and 10% crude CaMK-II. In the Ca^2+-free experiment, Ca^2+ is replaced by 0.05 mM EGTA. […]

peptide D = assay: FRET of fluorescein-labelled peptides N and C with rhodamine-labelled peptide D; type: binding; conditions: no peptidase
carboxypeptidase = assay: Carboxypeptidase digestion, FRET; type: biochemical
aminopeptidase = assay: Aminopeptidase digestion, FRET; type: biochemical
chymotrypsin = assay: Time-course digestion with chymotrypsin, MALDI-TOF; type: biochemical
Description: A time-course digestion of Peptide A with chymotrypsin is analysed by MALDI-TOF mass spectrometry. On the protein matrix (MS, denoted SA on each spectrogram) the Peptide A substrate as 4245 Da is evident. […] The C-terminal fragment appears to be cleaved at a second site (after L-26) generating a product of 1100 Da, although the final peptide fragment of about 990 Da is not observed in the MS.

[2] = type: physicochemical; conditions: 10 μM peptide, pH 7.0, 20° C.
Description: The circular dichroism (measured in units of ellipticity) of proteins at 222 nm provides a measure of the amount of a-helix present in the structure, with a large, negative ellipticity indicting a high level of helicity. The coiled-coil has a distinctive a-helical CD spectrum with minima at 222 nm and 208 nm (O'Shea et al., 1989, Science, 243: 538–542). The CD spectra of the unmodified Zip3 and its phosphorylated form (‘Zip3P’) are determined at a sample concentration of 10 μM in 150 mM KCB, 42.2 mM K2HPO4, 7.8 mM KH2PO4, pH 7.0 at 20° C.; spectra are recorded using a 1 mm pathlength cell in a Jasco J-715 spectropolarimeter with a Jasco PTC-348W Peltier temperature control unit. Peptide concentration is determined by tyrosine absorbance at 280 nm in 6M GuHCl. […] The effipticities of Zip3 and Zip3P at 222 nm with increasing temperature are measured. The steep portion of the sigmoid curve for Zip3 indicates the unfolding of the molecule. It is clear that this leucine zipper peptide begins to unfold at around 35° C. and is completely unfolded by 70° C. […]
The circular dichroism (measured in units of ellipticity) of proteins at 222 nm provides a measure of the amount of a-helix present in the structure, with a large, negative ellipticity indicting a high level of helicity. […] In all experiments described herein, peptide concentration is determined by tyrosine absorbance at 280 nm in 6M GnHCl.

Zip4SF = biological target: T1, Zip4SF (fluorescein label (on the cysteine residue, by analogy with Zip3F)); assay: FRET in solution
T1 construct: read as Zip4S with fluorescein, like Zip3F; also called Zip4S labelled with fluorescein
T1 peptide: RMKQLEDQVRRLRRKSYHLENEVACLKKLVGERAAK

[3] = biological target: T2, Peptide C, fluorescein-labelled (fluorescein label (site said to be 'the C and K residues as before', but the entry has neither Cys nor Lys)); assay: FRET, peptide C immobilised
T2 peptide: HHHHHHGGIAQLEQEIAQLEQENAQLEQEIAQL

[4] = biological target: T3, Peptide N, fluorescein-labelled (fluorescein label at the K residue); assay: FRET, peptide N immobilised
T3 peptide: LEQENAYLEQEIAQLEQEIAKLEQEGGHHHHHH

[5] = biological target: T4, Peptide 4 (SEQ ID NO. 56) (fluorescein label, by the procedure of Example 10 (not restated)); assay: FRET, procedure of Example 10
T4 construct: Immobilised peptide of the caspase reporter; also called Peptides 4
T4 peptide: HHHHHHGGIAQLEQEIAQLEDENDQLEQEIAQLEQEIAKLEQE

Pep 1 = biological target: T5, Pep 1; assay: statement in Example 3
T5 construct: Unphosphorylated; immobilised by its His tag on a Ni-NTA sensor chip in the Biacore assay
T5 peptide: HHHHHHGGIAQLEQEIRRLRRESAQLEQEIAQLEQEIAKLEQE

[6] = biological target: T6, Peptide 3 (SEQ ID NO. 54), labelled with fluorescein (fluorescein at the lysine residue); assay: FRET, Peptide 3 immobilised
T6 construct: also called peptides 3
T6 peptide: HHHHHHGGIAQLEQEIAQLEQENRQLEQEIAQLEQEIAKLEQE

[7] = biological target: T7, Pep 1F (Pep 1 peptide labelled with fluorescein) (not fully specified; fluorescein label; the lysine residue is inserted for labelling purposes); assay: FRET in solution, 50 µM Pep 1F and 50 µM Pep 2R, 37 °C
T7 construct: Unphosphorylated
T7 peptide: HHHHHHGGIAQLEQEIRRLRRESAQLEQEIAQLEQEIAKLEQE
Description: Fluorescence emission of fluorescein is measured at 520 nm by exciting at appropriate wavelength (450 nm). Pep 2R (Pep 2 labelled with rhodamine) at concentrations equal to that of Pep 1F (50 μM) is added and the fluorescence emission of Pep 1F and Pep 2R are monitored.

Molecule: R MKQLEDQ VRRLRRK SYHLENE VACLKKL VGERAAK (RMKQLEDQVRRLRRKSYHLENEVACLKKLVGERAAK) [Zip4S]
- phosphorylation by CaMK-II [1]: unable to phosphorylate
- extent of phosphorylation by PKA (PKA; 0.25 μM PKA): complete phosphorylation
- phosphorylation by PKA (substrate quality, rate) (PKA; 0.5 μM PKA, compared with known substrate PL919Y): good substrate

Molecule: LEQENAYLEQEIAQLEQEIAKLEQEGGHHHHHH [Peptide N]
- FRET in the presence of rhodamine-labelled peptide D (peptide D): FRET is observed
- FRET of pair with peptide D after addition of carboxypeptidase (carboxypeptidase): not affected
- FRET of pair with peptide D after addition of aminopeptidase (aminopeptidase): complete loss of FRET

Molecule: HHHHHHGGIAQLEQEIAQLEQENAYLEQEIAQLEQEIAKLEQE [Peptide A]
- digestion by chymotrypsin (chymotrypsin): degraded completely over two hours
- CD spectrum (structure indicated) [2]: classic coiled-coil

B1: Zip4SR (peptide)
peptide: RMKQLEDQVRRLRRKSYHLENEVACLKKLVGERAAK
modifications: also: rhodamine label, read from undefined name by analogy with Zip3R
notes: read as Zip4S with rhodamine, like Zip3R; also called Zip4S labelled with rhodamine
- binding result (Zip4SF): binds

Molecule: IAQLKQKIAQLKQKNAQLKQKIAQLKQKIC(rhodamine)QLKQK (reading uncertain) [Peptide D, rhodamine-labelled]
- binding result [3]: binds
- binding result [4]: binds

Molecule: IAQLKQKIAQLKQKNAQLKQKIAQLKQKICQLKQK (also: rhodamine label by procedure, site not given here) [Peptide 44 (SEQ ID NO. 57)]
- binding result [5]: binds

Molecule: IAQLKQEIAQLKQKNAQLKQKIAQLKQKICQLKQK [Pep 2]
- binding result (Pep 1): binds

Molecule: IAQLKQKIAQLKQKNAQLKQKIAQLKQKIC(rhodamine)QLKQK (reading uncertain) [peptide 33 (SEQ ID NO. 55), labelled with rhodamine]
- binding result [6]: binds

Molecule: IAQLKQEIAQLKQKNAQLKQKIAQLKQKIC(rhodamine)QLKQK (reading uncertain) [Pep 2R (Pep 2 peptide labelled with rhodamine)]
- binding result [7]: binds

From patent US7166475B2, “Compositions and methods for monitoring the modification state of a pair of polypeptides” (Cyclacel Ltd., priority 1999, dated 2007)
